Measurements from patent US20240132624A1 (Ablynx, published 2024).

Key:
human FcRn/b2M [1] = target: T1, human FcRn/b2M (human, UniProt P61769 21-119, biotinylated); test: SPR pH 6.0;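 also: surface plasmon resonance kinetics at 25 °C, diluted periplasmic extracts injected over immobilized ligand surfaces, 120 s association then 600–3600 s dissociation, running buffer containing 150 mM NaCl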
T1 construct: bought recombinant biotinylated protein (ACRO FCM-H82W4 or Immunitrack ITF01); also called hFcRn; hFcRn/hb2M
Experimental: (§1) All kinetic measurements have been performed on ProteOn XPR36 (BioRad Laboratories, Inc.), MASS-2 (Sierra sensors, Gmbh) or SPR-32 (Bruker Corporation). […] The phytip purified periplasmic extracts were diluted 1:10 in running buffer (CPA+150 mM NaCl+0.005% Tw20 at pH 5.5, pH 6.0 or pH 7.4) and injected over the ligand surfaces (association: 120 s at 45 μL/min; dissociation: 600s-3600 s at 45 μL/min). Experiments were carried out at 25° C.

cyno FcRn/b2M [2] = target: T2, cyno FcRn/b2M (cyno, UniProt Q8SPV9 24-297; Q8SPW0 21-119, biotinylated); test: SPR pH 6.0;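 also: surface plasmon resonance kinetics at 25 °C, diluted periplasmic extracts injected over immobilized ligand surfaces, 120 s association then 600–3600 s dissociation, running buffer containing 150 mM NaCl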
T2 construct: bought recombinant biotinylated protein (Immunitrack ITF05 or ACRO FCM-C82W5); also called cFcRn; cFcRn/cb2M
Experimental: as §1

human FcRn/b2M [3] = target: T1, human FcRn/b2M; test: SPR pH 7.4;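 also: surface plasmon resonance kinetics, periplasmic extracts diluted 1:10 flowed over immobilized target at 25 °C, 120 s association then 600–3600 s dissociation, buffer with 150 mM NaCl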
Experimental: as §1

cyno FcRn/b2M [4] = target: T2, cyno FcRn/b2M; test: SPR pH 7.4;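 also: surface plasmon resonance kinetics, periplasmic extracts diluted 1:10 flowed over immobilized target at 25 °C, 120 s association then 600–3600 s dissociation, buffer with 150 mM NaCl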
Experimental: as §1

human FcRn/b2M [5] = target: T1, human FcRn/b2M; test: SPR off-rate; pH 7.4 vs pH 6.0;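 also: surface plasmon resonance with diluted periplasmic extracts flowed over ligand surfaces, 120 s association and 600–3600 s dissociation at 25 °C, running buffer containing 150 mM NaCl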
Experimental: as §1

cyno FcRn/b2M [6] = target: T2, cyno FcRn/b2M; test: SPR off-rate; pH 7.4 vs pH 6.0;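 also: surface plasmon resonance with diluted periplasmic extracts flowed over ligand surfaces, 120 s association and 600–3600 s dissociation at 25 °C, running buffer containing 150 mM NaCl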
Experimental: as §1

T2 sequence (Q8SPV9 24-297 limits assumed, chain 1 of 2): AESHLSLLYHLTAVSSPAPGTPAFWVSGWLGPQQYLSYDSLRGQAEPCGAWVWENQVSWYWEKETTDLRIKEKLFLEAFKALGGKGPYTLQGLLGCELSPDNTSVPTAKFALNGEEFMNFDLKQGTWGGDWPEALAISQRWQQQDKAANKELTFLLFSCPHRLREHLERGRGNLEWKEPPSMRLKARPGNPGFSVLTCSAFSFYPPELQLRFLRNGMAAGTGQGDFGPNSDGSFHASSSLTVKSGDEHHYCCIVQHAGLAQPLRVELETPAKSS
T2 sequence (Q8SPW0 21-119 limits assumed, chain 2 of 2): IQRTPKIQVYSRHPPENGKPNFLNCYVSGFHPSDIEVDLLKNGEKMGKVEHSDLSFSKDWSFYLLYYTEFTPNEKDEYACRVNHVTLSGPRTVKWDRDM
T1 sequence (chain, as listed by the source limits assumed, chain 1 of 2): as the sequence (Q8SPV9 24-297 limits assumed, chain 1 of 2) above, with D39N, Q44E, S99G, G189S, N190S, M217L, T269S counted along it
T1 sequence (P61769 21-119 limits assumed, chain 2 of 2): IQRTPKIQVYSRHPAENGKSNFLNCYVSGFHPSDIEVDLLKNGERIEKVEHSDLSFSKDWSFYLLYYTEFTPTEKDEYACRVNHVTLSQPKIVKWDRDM

| Binder | koff (human FcRn/b2M [1]) | koff (cyno FcRn/b2M [2]) | koff (human FcRn/b2M [3]) | koff (cyno FcRn/b2M [4]) | kd ratio pH 7.4/6.0 (human FcRn/b2M [5]) | kd ratio pH 7.4/6.0 (cyno FcRn/b2M [6]) |
| --- | --- | --- | --- | --- | --- | --- |
| T0263018B11 S52R (VHH, name in Kabat numbering, FLAG3-His6 tagged) VHH: EVQLVESGGGVVQPGGSLRLSCAASGFTFSSYAMYWVRQAPGKGLEWVSAIRSGGGSTDYADSVKGRFTISRDNSKNTLYLQMNSLRPEDTALYYCAADTLYTSLTWYSYWGQGTLVTVSS | 0.023 s⁻¹ | 0.016 s⁻¹ | 0.44 s⁻¹ | 0.38 s⁻¹ | 20 | 24 |
| T0263018B11 S52aT (VHH, name in Kabat numbering, FLAG3-His6 tagged) VHH: EVQLVESGGGVVQPGGSLRLSCAASGFTFSSYAMYWVRQAPGKGLEWVSAISTGGGSTDYADSVKGRFTISRDNSKNTLYLQMNSLRPEDTALYYCAADTLYTSLTWYSYWGQGTLVTVSS | 0.0016 s⁻¹ | 0.0012 s⁻¹ | 0.062 s⁻¹ | 0.059 s⁻¹ | 39 | 49 |
| T0263018B11 S52aE (VHH, name in Kabat numbering, FLAG3-His6 tagged) VHH: EVQLVESGGGVVQPGGSLRLSCAASGFTFSSYAMYWVRQAPGKGLEWVSAISEGGGSTDYADSVKGRFTISRDNSKNTLYLQMNSLRPEDTALYYCAADTLYTSLTWYSYWGQGTLVTVSS | 0.00087 s⁻¹ | 0.00077 s⁻¹ | 0.036 s⁻¹ | 0.039 s⁻¹ | 41 | 51 |
| T0263018B11 S56L (VHH, name in Kabat numbering, FLAG3-His6 tagged) VHH: EVQLVESGGGVVQPGGSLRLSCAASGFTFSSYAMYWVRQAPGKGLEWVSAISSGGGLTDYADSVKGRFTISRDNSKNTLYLQMNSLRPEDTALYYCAADTLYTSLTWYSYWGQGTLVTVSS | 0.00075 s⁻¹ | 0.00045 s⁻¹ | 0.02 s⁻¹ | 0.013 s⁻¹ | 26 | 28 |
| T0263018B11 S56H (VHH, name in Kabat numbering, FLAG3-His6 tagged) VHH: EVQLVESGGGVVQPGGSLRLSCAASGFTFSSYAMYWVRQAPGKGLEWVSAISSGGGHTDYADSVKGRFTISRDNSKNTLYLQMNSLRPEDTALYYCAADTLYTSLTWYSYWGQGTLVTVSS | 0.0016 s⁻¹ | 0.0013 s⁻¹ | 0.055 s⁻¹ | 0.046 s⁻¹ | 35 | 36 |
| T0263018B11 S56K (VHH, name in Kabat numbering, FLAG3-His6 tagged) VHH: EVQLVESGGGVVQPGGSLRLSCAASGFTFSSYAMYWVRQAPGKGLEWVSAISSGGGKTDYADSVKGRFTISRDNSKNTLYLQMNSLRPEDTALYYCAADTLYTSLTWYSYWGQGTLVTVSS | 0.0021 s⁻¹ | 0.0018 s⁻¹ | 0.053 s⁻¹ | 0.044 s⁻¹ | 25 | 25 |
| T0263018B11 S52aM (VHH, name in Kabat numbering, FLAG3-His6 tagged) VHH: EVQLVESGGGVVQPGGSLRLSCAASGFTFSSYAMYWVRQAPGKGLEWVSAISMGGGSTDYADSVKGRFTISRDNSKNTLYLQMNSLRPEDTALYYCAADTLYTSLTWYSYWGQGTLVTVSS | 0.00048 s⁻¹ | 0.00027 s⁻¹ | 0.018 s⁻¹ | 0.013 s⁻¹ | 36 | 48 |
| T0263018B11 S52aA (VHH, name in Kabat numbering, FLAG3-His6 tagged) VHH: EVQLVESGGGVVQPGGSLRLSCAASGFTFSSYAMYWVRQAPGKGLEWVSAISAGGGSTDYADSVKGRFTISRDNSKNTLYLQMNSLRPEDTALYYCAADTLYTSLTWYSYWGQGTLVTVSS | 0.00068 s⁻¹ | 0.00043 s⁻¹ | 0.029 s⁻¹ | 0.022 s⁻¹ | 43 | 51 |
| T0263018B11 S52aR (VHH, name in Kabat numbering, FLAG3-His6 tagged) VHH: EVQLVESGGGVVQPGGSLRLSCAASGFTFSSYAMYWVRQAPGKGLEWVSAISRGGGSTDYADSVKGRFTISRDNSKNTLYLQMNSLRPEDTALYYCAADTLYTSLTWYSYWGQGTLVTVSS | 0.0023 s⁻¹ | 0.0015 s⁻¹ | 0.13 s⁻¹ | 0.091 s⁻¹ | 56 | 61 |
| T0263018B11 S56A (VHH, name in Kabat numbering, FLAG3-His6 tagged) VHH: EVQLVESGGGVVQPGGSLRLSCAASGFTFSSYAMYWVRQAPGKGLEWVSAISSGGGATDYADSVKGRFTISRDNSKNTLYLQMNSLRPEDTALYYCAADTLYTSLTWYSYWGQGTLVTVSS | 0.0013 s⁻¹ | 0.001 s⁻¹ | 0.051 s⁻¹ | 0.045 s⁻¹ | 39 | 45 |
| T0263018B11 S52aN (VHH, name in Kabat numbering, FLAG3-His6 tagged) VHH: EVQLVESGGGVVQPGGSLRLSCAASGFTFSSYAMYWVRQAPGKGLEWVSAISNGGGSTDYADSVKGRFTISRDNSKNTLYLQMNSLRPEDTALYYCAADTLYTSLTWYSYWGQGTLVTVSS | 0.0012 s⁻¹ | 0.00079 s⁻¹ | 0.063 s⁻¹ | 0.047 s⁻¹ | 51 | 60 |
| T0263018B11 S52aY (VHH, name in Kabat numbering, FLAG3-His6 tagged) VHH: EVQLVESGGGVVQPGGSLRLSCAASGFTFSSYAMYWVRQAPGKGLEWVSAISYGGGSTDYADSVKGRFTISRDNSKNTLYLQMNSLRPEDTALYYCAADTLYTSLTWYSYWGQGTLVTVSS | 0.00083 s⁻¹ | 0.00052 s⁻¹ | 0.035 s⁻¹ | 0.023 s⁻¹ | 42 | 44 |
| T0263018B11 S52aP (VHH, name in Kabat numbering, FLAG3-His6 tagged) VHH: EVQLVESGGGVVQPGGSLRLSCAASGFTFSSYAMYWVRQAPGKGLEWVSAISPGGGSTDYADSVKGRFTISRDNSKNTLYLQMNSLRPEDTALYYCAADTLYTSLTWYSYWGQGTLVTVSS | 0.00054 s⁻¹ | 0.0003 s⁻¹ | 0.029 s⁻¹ | 0.021 s⁻¹ | 53 | 71 |
| T0263018B11 S52aG (VHH, name in Kabat numbering, FLAG3-His6 tagged) VHH: EVQLVESGGGVVQPGGSLRLSCAASGFTFSSYAMYWVRQAPGKGLEWVSAISGGGGSTDYADSVKGRFTISRDNSKNTLYLQMNSLRPEDTALYYCAADTLYTSLTWYSYWGQGTLVTVSS | 0.00088 s⁻¹ | 0.0006 s⁻¹ | 0.034 s⁻¹ | 0.031 s⁻¹ | 39 | 51 |
| T0263018B11 S52V (VHH, name in Kabat numbering, FLAG3-His6 tagged) VHH: EVQLVESGGGVVQPGGSLRLSCAASGFTFSSYAMYWVRQAPGKGLEWVSAIVSGGGSTDYADSVKGRFTISRDNSKNTLYLQMNSLRPEDTALYYCAADTLYTSLTWYSYWGQGTLVTVSS | 0.0024 s⁻¹ | 0.0025 s⁻¹ | 0.058 s⁻¹ | 0.064 s⁻¹ | 24 | 25 |
| T0263018B11 S52T (VHH, name in Kabat numbering, FLAG3-His6 tagged) VHH: EVQLVESGGGVVQPGGSLRLSCAASGFTFSSYAMYWVRQAPGKGLEWVSAITSGGGSTDYADSVKGRFTISRDNSKNTLYLQMNSLRPEDTALYYCAADTLYTSLTWYSYWGQGTLVTVSS | 0.0019 s⁻¹ | 0.0017 s⁻¹ | 0.045 s⁻¹ | 0.042 s⁻¹ | 24 | 25 |
| T0263018B11 S56V (VHH, name in Kabat numbering, FLAG3-His6 tagged) VHH: EVQLVESGGGVVQPGGSLRLSCAASGFTFSSYAMYWVRQAPGKGLEWVSAISSGGGVTDYADSVKGRFTISRDNSKNTLYLQMNSLRPEDTALYYCAADTLYTSLTWYSYWGQGTLVTVSS | 0.0013 s⁻¹ | 0.001 s⁻¹ | 0.044 s⁻¹ | 0.038 s⁻¹ | 34 | 37 |
| T0263018B11 S52aV (VHH, name in Kabat numbering, FLAG3-His6 tagged) VHH: EVQLVESGGGVVQPGGSLRLSCAASGFTFSSYAMYWVRQAPGKGLEWVSAISVGGGSTDYADSVKGRFTISRDNSKNTLYLQMNSLRPEDTALYYCAADTLYTSLTWYSYWGQGTLVTVSS | 0.0027 s⁻¹ | 0.0021 s⁻¹ | 0.081 s⁻¹ | 0.095 s⁻¹ | 30 | 45 |
| T0263018B11 S56T (VHH, name in Kabat numbering, FLAG3-His6 tagged) VHH: EVQLVESGGGVVQPGGSLRLSCAASGFTFSSYAMYWVRQAPGKGLEWVSAISSGGGTTDYADSVKGRFTISRDNSKNTLYLQMNSLRPEDTALYYCAADTLYTSLTWYSYWGQGTLVTVSS | 0.0013 s⁻¹ | 0.001 s⁻¹ | 0.055 s⁻¹ | 0.047 s⁻¹ | 42 | 47 |
| T0263018B11 S56Q (VHH, name in Kabat numbering, FLAG3-His6 tagged) VHH: EVQLVESGGGVVQPGGSLRLSCAASGFTFSSYAMYWVRQAPGKGLEWVSAISSGGGQTDYADSVKGRFTISRDNSKNTLYLQMNSLRPEDTALYYCAADTLYTSLTWYSYWGQGTLVTVSS | 0.0022 s⁻¹ | 0.0018 s⁻¹ | 0.067 s⁻¹ | 0.068 s⁻¹ | 30 | 38 |
| T0263018B11 S52aW (VHH, name in Kabat numbering, FLAG3-His6 tagged) VHH: EVQLVESGGGVVQPGGSLRLSCAASGFTFSSYAMYWVRQAPGKGLEWVSAISWGGGSTDYADSVKGRFTISRDNSKNTLYLQMNSLRPEDTALYYCAADTLYTSLTWYSYWGQGTLVTVSS | 0.0015 s⁻¹ | 0.0008 s⁻¹ | 0.062 s⁻¹ | 0.043 s⁻¹ | 41 | 54 |
